Measurements as given in IntAct's records for PubMed 17070842.

B1: Tyrosine-protein phosphatase non-receptor type substrate 1 (Homo sapiens), P78324-4 (parent)
chain: MEPAGPAPGRLGPLLCLLLAASCAWSGVAGEEELQVIQPDKSVLVAAGETATLRCTATSLIPVGPIQWFRGAGPGRELIYNQKEGHFPRVTTVSDLTKRNNMDFSIRIGNITPADAGTYYCVKFRKGSPDVEFKSGAGTELSVRAKPSAPVVSGPAARATPQHTVSFTCESHGFSPRDITLKWFKNGNELSDFQTNVDPVGESVSYSIHSTAKVVLTREDVHSQVICEVAHVTLQGDPLRGTANLSETIRVPPTLEVTQQPVRAENQVNVTCQVRKFYPQRLQLTWLENGNVSRTETASTVTENKDGTYNWMSWLLVNVSAHRDDVKLTCQVEHDGQPAVSKSHDLKVSAHPKEQGSNTAAENTGSNERNIYIVVGVVCTLLVALLMAALYLVRIRQKKAQGSTSSTRLHEPEKNAREITQDTNDITYADLNLPKGKKPAPQAAEPNNHTEYASIQTSPQPASEDTLTYADLDMVHLNRTPKQPAPKPEPSFSEYASVQVPRK
B2: Signal-regulatory protein beta-1 (Homo sapiens), O00241 (parent)
chain: MPVPASWPHLPSPFLLMTLLLGRLTGVAGEDELQVIQPEKSVSVAAGESATLRCAMTSLIPVGPIMWFRGAGAGRELIYNQKEGHFPRVTTVSELTKRNNLDFSISISNITPADAGTYYCVKFRKGSPDDVEFKSGAGTELSVRAKPSAPVVSGPAVRATPEHTVSFTCESHGFSPRDITLKWFKNGNELSDFQTNVDPAGDSVSYSIHSTARVVLTRGDVHSQVICEIAHITLQGDPLRGTANLSEAIRVPPTLEVTQQPMRAENQANVTCQVSNFYPRGLQLTWLENGNVSRTETASTLIENKDGTYNWMSWLLVNTCAHRDDVVLTCQVEHDGQQAVSKSYALEISAHQKEHGSDITHEAALAPTAPLLVALLLGPKLLLVVGVSAIYICWKQKA

Variants of: B1
Settings: with cd47_human CD47, Q08722
Target sequence in this assay (Q08722 whole entry): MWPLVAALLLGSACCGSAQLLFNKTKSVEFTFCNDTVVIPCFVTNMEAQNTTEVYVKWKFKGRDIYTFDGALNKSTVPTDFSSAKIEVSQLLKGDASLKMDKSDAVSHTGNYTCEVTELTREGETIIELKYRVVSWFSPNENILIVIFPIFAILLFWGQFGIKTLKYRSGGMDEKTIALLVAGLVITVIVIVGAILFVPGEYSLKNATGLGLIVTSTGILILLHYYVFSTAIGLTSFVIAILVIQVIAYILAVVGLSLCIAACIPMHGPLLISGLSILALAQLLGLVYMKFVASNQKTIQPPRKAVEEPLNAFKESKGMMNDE
In the case of A57M, the “effect of a mutation on the interaction” value is reported as “disrupting interaction strength”.

Variants of: B2
Settings: with cd47_human CD47, Q08722
Target sequence in this assay (Q08722 whole entry): as above
In the case of M56V;M66Q, the “effect of a mutation on the interaction” value is reported as “causing an interaction”.
In the case of M56V;M66Q;A73P, the “effect of a mutation on the interaction” value is reported as “causing an interaction”.
For M56V;M66Q;L101M, the “effect of a mutation on the interaction” value was “causing an interaction”.
